Data as given in patent US20240417463A1 (ADAGENE PTE, published 2024).

Experiments:
[1] = target: human CD47 on the cell surface (CEM, Raji and other human tumor cells, human RBCs) (human) (UniProt Q08722)
[2] = target: T1, hCD47-ECD/Fc protein (Sinobiological) (human, UniProt Q08722 19-139, biotinylated in the Octet assay, sites not stated); assay: competition ELISA vs biotin-hSIRPα-ECD/His on coated hCD47-ECD/Fc, experiment 2
T1 construct: extracellular domain; Bought protein; also called human CD47-Fc antigen; recombinant hCD47-ECD/Fc; not shown: Fc part of the bought fusion protein

[3] = target: T1, hCD47-ECD/Fc protein (Sinobiological); assay: ELISA, coated hCD47-ECD/Fc
Procedure: (§1) After blocking, the plates were washed three times and incubated with test antibodies with serial dilution at 37° C. for 1 hour. Then the plates were washed three times and incubated with HRP-conjugated anti-human Fab secondary antibody (Sigma) at 37° C. for 1 hour. After washing three times, the plates were incubated with TMB substrate for 15 minutes at room temperature. The reaction was stopped by the addition of H2SO4 stop solution. Absorbance at 450 nm was measured by a microplate reader. The data were analyzed by GraphPad Prism 7.0.

[4] = target: T1, hCD47-ECD/Fc protein (Sinobiological); assay: BLI (Octet RED96), biotin-hCD47-ECD/Fc on SA sensors, 1:1 model;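 also: test antibodies as analytes, 300 s association then 300 s dissociation in running buffer, with benchmark reference antibodies run as controls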
Procedure: (§2) The binding affinity between antibodies and human CD47 was measured through Octet® RED96 System (ForteBio). […] After washing, the sensors were dipped into solutions containing test antibodies for 300 seconds to monitor the association phase, and then were dipped into running buffer for 300 seconds to monitor the dissociation phase. The acquired ForteBio data were processed with Data Acquisition software 7.1, and kinetic data were fitted to a 1:1 Langmuir binding model.

[5] = target: T1, hCD47-ECD/Fc protein (Sinobiological); assay: competition ELISA vs biotin-hSIRPα-ECD/His on coated hCD47-ECD/Fc, experiment 1
Procedure: The plates were washed three times again and incubated with HRP-conjugated streptavidin at 37° C. for 1 hour. After washing, the plates were incubated with TMB substrate for 15 minutes at room temperature. The reaction was stopped by the addition of H2SO4 stop solution. Absorbance at 450 nm was measured by a microplate reader. The data was analyzed by GraphPad Prism 7.0.

[6] = target: T1, hCD47-ECD/Fc protein (Sinobiological); assay: ELISA, coated hCD47-ECD/Fc, second independent measurement
Procedure: as §1

[7] = target: T1, hCD47-ECD/Fc protein (Sinobiological); assay: BLI (Octet RED96), biotin-hCD47-ECD/Fc on SA sensors, 1:1 model, second independent measurement
Procedure: as §2

[8] = target: T1, hCD47-ECD/Fc protein (Sinobiological); assay: BLI (Octet RED96), biotin-hCD47-ECD/Fc on SA sensors, 1:1 model; ForteBio BLI affinity ranking, not ELISA
Procedure: as §2

EC50 [3] [nM] | Kd [4] [nM] | koff [4] [s⁻¹] | kon [4] [M⁻¹ s⁻¹] | IC50 [5] [nM] | Molecule | further results
 |  |  |  |  | Neg ctrl (antibody) | % of events double-positive for CFSE-Raji and BMQC-Jurkat (cell clustering), antibody at 100 nM [1]: 10.3%
 |  |  |  |  | TY21451 (antibody, V domains shown) VH: EVQLVESGGGLVQPGGSLRLSCAASGFTFSDYWIHWVRQAPGKGLEWVSGISGAGGSTYYADSVKGRFTISRDNSKNTLYLQLNSLRAEDTAVYYCARLGDYWGQGTLVTVSS VL: DIQLTQSPSSLSASVGDRVTITCRASQGISSVLAWYQQKPGKAPKLLIYAASTLQSGVPSRFSGSGSGTDFTLTISSLQPEDFATYYCQQYYSIPFTFGQGTKVEIKR | IC50 [2]: > 100 nM
3.66 | 0.141 | 1.37e-05 | 97300 | > 100 | TY25039 (antibody, V domains shown) VH: QVQPAQSGAEVKKPGSSVKVSCKASGYSISSGYYWGWIRQAPGQGLEWIGAISYSGSTYYSPSLKSRVTITADKSTSTAYMELSSLRSEDTAVYYCARHYLFAGSTSYDAFDIWGQGTLVTVSS VL: DIQLTQSPSSLSASVGDRVTITCRASQSVDFYGFSFLAWYQQKPGKAPKLLIYDASNRATGIPSRFSGSGSGTDFTLTISSLQPEDFATYYCQQSYRTPLTFGQGTKVEIKR | 
0.95 | 0.611 | 3.42e-05 | 56000 | > 100 | TY25037 (antibody, V domains shown) VH: QVQLVQSGAEVKKPGSSVKVSCKASGYSITSGHYWTWIRQAPGQGLEWIGGIIPVFGTPNYAQKFQGRVTITADKSTSTAYMELSSLRSEDTAVYYCASYGYGGAYFDVWGQGTLVTVSS VL: DIQLTQSPSSLSASVGDRVTITCRASQSVDFHGISFLHWYQQKPGKAPKLLIYDASNRATGIPSRFSGSGSGTDFTLTISSLQPEDFATYYCVQGIQWPWTFGQGTKVEIKR | 
1.17 |  |  |  | > 100 | TY25041 (antibody, V domains shown) VH: QVQLVQSGAEVKKPGSSVKVSCKASGYSISSGHHWNWIRQAPGQGLEWIGAISYSGSTYYSPSLKSRVTITADKSTSTAYMELSSLRSEDTAVYYCARQGYYGGEGYAVDYWGQGTLVTVSS VL: DIQLTQSPSSLSASVGDRVTITCRASQSVDFYGISFLHWYQQKPGKAPKLLIYDASNRATGIPSRFSGSGSGTDFTLTISSLQPEDFATYYCVQATQTPFTFGQGTKVEIKR | 
0.46 | 0.474 | 0.0002 | 422000 | 3.3 | TY25040 (antibody, V domains shown) VH: QVQLVQSGAEVKKPGSSVKVSCKASGFTFSDYGIHWVRQAPGQGLEWIGRIYPSGGSTNYAQKFQGRVTITADKSTSTAYMELSSLRSEDTAVYYCARQRGYGRFAYWGQGTLVTVSS VL: DIQLTQSPSSLSASVGDRVTITCSASSSVGYVYWYQQKPGKAPKLLIYDASSLESGVPSRFSGSGSGTDFTLTISSLQPEDFATYFCQQYTYAPFTFGQGTKVEIKR | EC50 [6]: 0.39 nM
6.11 | < 0.001 | < 1e-07 | 58900 | > 100 | TY25033 (antibody, V domains shown) VH: QVQLVQSGAEVKKPGSSVKVSCKASGFTFTSYAIHWVRQAPGQGLEWIGIINPNFGSTNYAQKFQGRVTITADKSTSTAYMELSSLRSEDTAVYYCARYYYGASFDVWGQGTLVTVSS VL: DIQLTQSPSSLSASVGDRVTITCKSGQSLLHGDVKTYLYWYQQKPGKAPKLLIYDASNRATGIPSRFSGSGSGTDFTLTISSLQPEDFATYYCQQYASWPPGFTFGQGTKVEIKR | 
2.55 | < 0.001 | < 1e-07 | 171000 | 60.6 | TY25035 (antibody, V domains shown) VH: EVQLVESGGGLVQPGGSLRLSCAASGYSISSGYHWDWIRQAPGKGLEWLARIYWDGDKRYSPSLKSRLTISRDNSKNTLYLQLNSLRAEDTAVYYCARFSDGFDPWGQGTLVTVSS VL: EIVLTQSPATLSLSPGERATLSCRASQSVDFVGISFLHWYQQKPGQAPRLLIYDASNRATGIPARFSGSGSGTDFTLTISSLEPEDFAVYYCVQGLQWPHTFGQGTKVEIKR | 
0.78 | 4.47 | 0.00111 | 249000 | > 100 | TY25038 (antibody, V domains shown) VH: QVQLVQSGAEVKKPGSSVKVSCKASGFTFSRYAIHWVRQAPGQGLEWLGGIIPVFGTANYAQKFQGRVTITADKSTSTAYMELSSLRSEDTAVYYCARQGILGGFAYWGQGTLVTVSS VL: DIQLTQSPSSLSASVGDRVTITCRASESVDFHGKSFLAWYQQKPGKAPKLLIYAASSLQSGVPSRFSGSGSGTDFTLTISSLQPEDFATYYCQQYLELPFTFGQGTKVEIKR | 
1.71 | < 0.001 | < 1e-07 | 93700 | > 100 | TY25036 (antibody, V domains shown) VH: QVQLVQSGAEVKKPGSSVKVSCKASGYTFTGYAIHWVRQAPGQGLEWIGWISPSSGSTKYAQKFQGRVTITADKSTSTAYMELSSLRSEDTAVYYCARYGYGPVFDYWGQGTLVTVSS VL: DIQLTQSPSSLSASVGDRVTITCSASSSVTYIYWYQQKPGKAPKLLIYDASNRATGIPSRFSGSGSGTDFTLTISSLQPEDFATYYCQQYTSSPRGFTFGQGTKVEIKR | 
2.42 | 4.62 | 0.00166 | 361000 | 21.7 | TY25030 (antibody, V domains shown) VH: EVQLVESGGGLVQPGGSLRLSCAASGYSITSGYYWSWIRQAPGKGLEWIGEIYHSGNTYYNPSLKSRVTISRDNSKNTLYLQLNSLRAEDTAVYYCARRVPLGAFDYWGQGTLVTVSS VL: DIQLTQSPSSLSASVGDRVTITCRASQTVISRYLAWYQQKPGKAPKLLIYDASNLETGVPSRFSGSGSGTDFTLTISSLQPEDFATYYCQQYYAWPLTFGQGTKVEIKR | 
0.59 | 0.483 | 8.1e-05 | 168000 | 4.55 | TY25031 (antibody, V domains shown) VH: EVQLVESGGGLVQPGGSLRLSCAASGYSITSGYHWGWIRQAPGKGLEWIGRIYPSSGSTKYAQKFQGRVTISRDNSKNTLYLQLNSLRAEDTAVYYCARGVRGSYGWFDVWGQGTLVTVSS VL: DIQLTQSPSSLSASVGDRVTITCSASSRVSYVYWYQQKPGKAPKLLIYAASTLQSGVPSRFSGSGSGTDFTLTISSLQPEDFATYYCQHYVSSPRVYTFGQGTKVEIKR | EC50 [6]: 0.6 nM
0.47 | 0.826 | 0.000671 | 813000 | 3.53 | TY25034 (antibody, V domains shown) VH: EVQLVESGGGLVQPGGSLRLSCAASGYSITSGHYWNWIRQAPGKGLEWIGIISPSGGGTKYAQKFQGRVTISRDNSKNTLYLQLNSLRAEDTAVYYCARGARGYYALDYWGQGTLVTVSS VL: EIVLTQSPATLSLSPGERATLSCRASQSVRGRLLAWYQQKPGQAPRLLIYAASSLQSGVPARFSGSGSGTDFTLTISSLEPEDFAVYYCAQYLELPYTFGQGTKVEIKR | Kd [7]: 0.87 nM; koff [7]: 0.000704 s⁻¹; kon [7]: 809000 M⁻¹ s⁻¹; EC50 [6]: 0.41 nM
0.33 |  |  |  |  | TY21447 (antibody, V domains shown) VH: EVQLVESGGGLVQPGGSLRLSCAASGFTFSNYAIHWVRQAPGKGLEWVSAISGSGSSTYYADSVKGRFTISRDNSKNTLYLQLNSLRAEDTAVYYCARRGSYGFGAFDYWGQGTLVTVSS VL: DIQLTQSPSSLSASVGDRVTITCRASQTIGRYLNWYQQKPGKAPKLLIYDASNRATGIPSRFSGSGSGTDFTLTISSLQPEDFATYYCQQRYPWPYTFGQGTKVEIKR | IC50 [2]: 3.12 nM
 |  |  |  |  | TY21449 (antibody, V domains shown) VH: EVQLVESGGGLVQPGGSLRLSCAASGFTFSGYAIHWVRQAPGKGLEWVSAISGSGSSTYYADSVKGRFTISRDNSKNTLYLQLNSLRAEDTAVYYCARRGSYGFGAFDYWGQGTLVTVSS VL: DIQLTQSPSSLSASVGDRVTITCRASQTIGRYLNWYQQKPGKAPKLLIYDASNRATGIPSRFSGSGSGTDFTLTISSLQPEDFATYYCQQRYPWPYTFGQGTKVEIKR | IC50 [2]: 3.18 nM
 |  |  |  |  | TY25032 (antibody, V domains shown) VH: EVQLVESGGGLVQPGGSLRLSCAASGFTFTSYGIHWVRQAPGKGLEWVSAISGSGGSTYYADSVKGRFTISRDNSKNTLYLQLNSLRAEDTAVYYCARSGHAYDFDYWGQGTLVTVSS VL: DIQLTQSPSSLSASVGDRVTITCRASQSVDFYGISFLDWYQQKPGKAPKLLIYAASTLQSGVPSRFSGSGSGTDFTLTISSLQPEDFATYYCQQGGTSPWTFAQGTKVEIKR | Kd [8]: 2.73 nM; koff [8]: 0.000806 s⁻¹; kon [8]: 295000 M⁻¹ s⁻¹
0.58 | 1.51 | 0.000631 | 417000 | > 100 | TY25029 (antibody, V domains shown) VH: EVQLVESGGGLVQPGGSLRLSCAASGYTFSNYWIHWVRQAPGKGLEWIGIIYPSSGSTKYAQKFQGRVTISRDNSKNTLYLQLNSLRAEDTAVYYCARDRAPGSSGYYDGFDYWGQGTLVTVSS VL: DIQLTQSPSSLSASVGDRVTITCRASQSVDFHGISFLHWYQQKPGKAPKLLIYDASSLESGVPSRFSGSGSGTDFTLTISSLQPEDFATYYCHQRSTTPLTFGQGTKVEIKR | 
